In publication PMC4800795:

T1: endogenous IRF3 of HEK293T cells (human (endogenous in HEK293T)), Q14653
T1 chain: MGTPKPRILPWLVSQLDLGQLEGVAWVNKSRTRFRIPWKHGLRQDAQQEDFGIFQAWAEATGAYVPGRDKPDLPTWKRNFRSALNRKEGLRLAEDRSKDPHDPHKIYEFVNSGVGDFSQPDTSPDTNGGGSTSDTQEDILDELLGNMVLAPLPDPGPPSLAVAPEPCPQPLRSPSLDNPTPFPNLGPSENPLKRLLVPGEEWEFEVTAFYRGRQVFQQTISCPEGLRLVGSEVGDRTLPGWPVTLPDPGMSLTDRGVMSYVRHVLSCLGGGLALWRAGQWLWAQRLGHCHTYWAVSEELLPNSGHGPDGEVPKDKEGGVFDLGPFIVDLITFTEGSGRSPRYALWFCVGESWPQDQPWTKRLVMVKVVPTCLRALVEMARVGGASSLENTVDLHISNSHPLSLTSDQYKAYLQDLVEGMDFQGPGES

T2: GFP-tagged wild-type IRF3 (IRF3-WT-GFP), in HEK293T cells, Q14653
T2 chain: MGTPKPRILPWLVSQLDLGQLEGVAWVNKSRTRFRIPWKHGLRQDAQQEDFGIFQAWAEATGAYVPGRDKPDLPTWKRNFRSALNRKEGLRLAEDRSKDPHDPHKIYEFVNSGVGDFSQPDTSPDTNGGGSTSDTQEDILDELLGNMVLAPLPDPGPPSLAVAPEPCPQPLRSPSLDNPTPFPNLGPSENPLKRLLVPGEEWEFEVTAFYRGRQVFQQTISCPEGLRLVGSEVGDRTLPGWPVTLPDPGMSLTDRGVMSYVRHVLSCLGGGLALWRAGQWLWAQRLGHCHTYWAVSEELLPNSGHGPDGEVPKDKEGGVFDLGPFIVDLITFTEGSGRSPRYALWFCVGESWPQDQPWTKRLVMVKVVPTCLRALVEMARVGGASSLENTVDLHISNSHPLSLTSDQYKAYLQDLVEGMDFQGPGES


Assays:
[1] = biological target: T1, endogenous IRF3 of HEK293T cells (human …); experiment: native gel or EMSA; native PAGE (deoxycholate in the cathode buffer, on ice) of HEK293T lysates, Western blot; cells stimulated with poly(I·C) 10 μg/ml for 12 h, with or without Flag-FAF1; details: remark: other sources report otherwise
[2] = biological target: T2, GFP-tagged wild-type IRF3 …; experiment: as above; details: remark: other sources report otherwise

| Binder | stoichiometry N [1] | stoichiometry N [2] |
| --- | --- | --- |
| endogenous IRF3 of HEK293T cells, Q14653 1-427 (natural protein) MGTPKPRILPWLVSQLDLGQLEGVAWVNKSRTRFRIPWKHGLRQDAQQEDFGIFQAWAEATGAYVPGRDKPDLPTWKRNFRSALNRKEGLRLAEDRSKDPHDPHKIYEFVNSGVGDFSQPDTSPDTNGGGSTSDTQEDILDELLGNMVLAPLPDPGPPSLAVAPEPCPQPLRSPSLDNPTPFPNLGPSENPLKRLLVPGEEWEFEVTAFYRGRQVFQQTISCPEGLRLVGSEVGDRTLPGWPVTLPDPGMSLTDRGVMSYVRHVLSCLGGGLALWRAGQWLWAQRLGHCHTYWAVSEELLPNSGHGPDGEVPKDKEGGVFDLGPFIVDLITFTEGSGRSPRYALWFCVGESWPQDQPWTKRLVMVKVVPTCLRALVEMARVGGASSLENTVDLHISNSHPLSLTSDQYKAYLQDLVEGMDFQGPGES | 2 | – |
| GFP-tagged wild-type IRF3 (IRF3-WT-GFP), in HEK293T cells, Q14653 1-427 (natural protein) MGTPKPRILPWLVSQLDLGQLEGVAWVNKSRTRFRIPWKHGLRQDAQQEDFGIFQAWAEATGAYVPGRDKPDLPTWKRNFRSALNRKEGLRLAEDRSKDPHDPHKIYEFVNSGVGDFSQPDTSPDTNGGGSTSDTQEDILDELLGNMVLAPLPDPGPPSLAVAPEPCPQPLRSPSLDNPTPFPNLGPSENPLKRLLVPGEEWEFEVTAFYRGRQVFQQTISCPEGLRLVGSEVGDRTLPGWPVTLPDPGMSLTDRGVMSYVRHVLSCLGGGLALWRAGQWLWAQRLGHCHTYWAVSEELLPNSGHGPDGEVPKDKEGGVFDLGPFIVDLITFTEGSGRSPRYALWFCVGESWPQDQPWTKRLVMVKVVPTCLRALVEMARVGGASSLENTVDLHISNSHPLSLTSDQYKAYLQDLVEGMDFQGPGES | – | 2 |
